Results on one molecule are retold here after patent US20180305695, “DNA APTAMER THAT BINDS TO vWF” (TAGCYX BIOTECHNOLOGIES, published 2018).

This data set deals with von Willebrand factor A1 domain (Homo sapiens, UniProt P04275 SEQ:1277-1453). The data set can be described thus: EMSA; positive control, gel 4 C; substantially no binding with gel at 25-37 C. To be noted: tags: U-Protein Express V003; label: biotin (SPR). The protocol: The binding ability of the synthesized DNA aptamers was analyzed via gel shift assay. Specifically, the DNA aptamers (100 nM) and the vWF A1 domain (100 nM, V003, U-Protein) were suspended in 20 μl of a reaction solution (1×PBS, 0.005% Nonidet P-40), and incubated at 37° C. for 30 minutes. Thereafter, 25% glycerol containing bromophenol blue was added to be a final concentration of glycerol to 5% therein, the resultant was subjected to 8% nondenaturing polyacrylamide gel electrophoresis at 4° C., and the DNA aptamers bound to the vWF A1 domain were separated from the free DNA aptamers. Thereafter, the DNA aptamers were stained with SYBR Gold (Thermo Fisher Scientific) diluted 1/20,000-fold with the 1×TBE solution and detected by a bioimage analyzer (LAS-4000, Fujifilm Corporation). The percentage of gel shifting was determined by dividing the amount of the complex by the amount of the free form and the complex, each deduced based on a band and expressing the determined value in a percentage figure.
Gel shift assay was carried out in the same manner as in Example 3, except that electrophoresis was carried out at 4° C. and 300 V, 25° C. and 40 W, and 37° C. and 40 W.
And the activity of vWF2-DsAA (o) and vWF2-AADs (p) were decreased in comparison with vWF2-DsDsDs (m).
Background: A gel shift assay detects complexes by their altered migration in electrophoresis.

With GGCGTGCAGTGCCTTCGGCCGTGCGGTGCCTCCGTCACGCC (ssDNA) [ARC1172], the binding result is reported as “binds”.
